Results taken from PMC7312009, “SIRT7 Deacetylates STRAP to Regulate p53 Activity and Stability” (International Journal of Molecular Sciences, 2020).

Target: T1, Flag-tagged SIRT7 (UniProt Q9NRC8 1-400)
T1 construct: also called SIRT7 protein purified from 293T cells; source: purified from 293T cells; HEK293T, transfected, in lysate
T1 sequence (looked up): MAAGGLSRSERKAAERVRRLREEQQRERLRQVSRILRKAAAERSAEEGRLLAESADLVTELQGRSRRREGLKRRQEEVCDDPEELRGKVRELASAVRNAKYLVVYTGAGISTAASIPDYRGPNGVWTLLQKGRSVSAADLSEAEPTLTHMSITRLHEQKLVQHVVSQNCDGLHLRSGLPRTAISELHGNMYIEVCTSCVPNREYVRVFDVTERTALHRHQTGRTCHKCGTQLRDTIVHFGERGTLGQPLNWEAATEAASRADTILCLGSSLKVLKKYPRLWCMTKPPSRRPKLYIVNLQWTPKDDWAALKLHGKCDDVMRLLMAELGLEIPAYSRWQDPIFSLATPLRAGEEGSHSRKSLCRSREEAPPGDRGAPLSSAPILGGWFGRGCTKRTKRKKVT
Experiment: pull-down; 1 μg GST-STRAP fusion protein incubated with Flag-tagged SIRT7 purified from 293T cells in 100 μL BC100 at 4 °C overnight, then glutathione-sepharose beads 2 h; Western blotting
Conditions: both partners purified

binding result: binds
B1: GST-STRAP full length (natural protein, UniProt Q9Y3F4 1-350, looked up)
chain: MAMRQTPLTCSGHTRPVVDLAFSGITPYGYFLISACKDGKPMLRQGDTGDWIGTFLGHKGAVWGATLNKDATKAATAAADFTAKVWDAVSGDELMTLAHKHIVKTVDFTQDSNYLLTGGQDKLLRIYDLNKPEAEPKEISGHTSGIKKALWCSEDKQILSADDKTVRLWDHATMTEVKSLNFNMSVSSMEYIPEGEILVITYGRSIAFHSAVSLDPIKSFEAPATINSASLHPEKEFLVAGGEDFKLYKYDYNSGEELESYKGHFGPIHCVRFSPDGELYASGSEDGTLRLWQTVVGKTYGLWKCVLPEEDSGELAKPKIGFPETTEEELEEIASENSDCIFPSAPDVKA
notes: Serine-threonine kinase receptor-associated protein (STRAP), full length, subcloned into pGEX4T-3; also called GST-STRAP (FL); full-length STRAP (WT); source: purified GST fusion protein (pGEX4T-3)
